Values joined by “and” are separate entries in the source; they are usually repeats but may differ in a detail not shown here. Equal values may be shown once.
What was measured:
[1] = tested on: patients with geographic atrophy (GA) secondary to age-related macular degeneration (AMD); test: OAKS Phase 3 study: safety; details: for Patients with new onset fellow eye eAMD: through 18 months
Method: All randomized subjects returned every month to the clinical site for assessments and additional pegcetacoplan or sham injections according to their randomization scheme until Month 12. From Month 12 onwards, subjects return to the clinical site based on their randomized treatment schedule (monthly or EOM) and follow the treatment regimen and assessments outlined in the Visit Schedule until Month 24. Safety was assessed throughout the study by a number of evaluations including: monitoring of AEs, preinjection and postinjection monitoring, blood and urine samples collected, physical examination, vital signs, and follow-up phone calls. Blood samples were also be collected for anti-therapeutic antibodies, genotyping, and clinical repository (if the subject consented to this portion).
The Safety set consisted of all subjects randomized who received at least one injection of pegcetacoplan or sham. Subjects were analyzed according to the actual treatment received. […] This population was used for all safety analyses.

[2] = tested on: patients with geographic atrophy (GA) secondary to age-related macular degeneration (AMD); test: OAKS Phase 3 study: GA lesion growth in study eye by fundus autofluorescence; format: in vivo, human; details: for reduction in GA lesion growth from baseline compared to sham: over 24 months; for reduction in lesion growth in the study eye versus the untreated study eye, after adjusting for sham / reduction in lesion growth in the study eye versus the untreated study eye: bilateral GA; for reduction in lesion growth in the study eye versus the untreated study eye, after adjusting for sham / reduction in lesion growth in the study eye versus the untreated study eye / percentage reduction versus sham pooled: 18 months
[3] = PEOM (every other month), 12 months
[4] = PEOM (every other month), 18 months
[5] = PEOM (every other month), N=212
[6] = post-hoc quartiles of GA lesion growth over 18 months (FIG. 27)

Poly(oxy-1,2-ethanediyl), α-hydro-ω-hydroxy-, 15,15′-diester with N-acetyl-L-isoleucyl-L-cysteinyl-L-valyl-1-methyl-L-tryptophyl-L-glutaminyl-L-α-aspartyl-L-tryptophylglycyl-L-alanyl-L-histidyl-L-arginyl-L-cysteinyl-L-threonyl-2-[2-(2-aminoethoxy) ethoxy]acetyl-N^6-carboxy-L-lysinamide cyclic (2->12)-(disulfide) [pegcetacoplan]
All TEAEs, Total events, M [1, 3]: 721
All TEAEs, patients [1, 3]: 160 (75.5%) n (%)
Cases of MNV (FA) detected by reading center but not reported by Investigator as AE [1, 3]: 3
Non-ocular TEAEs, Patients [1, 3]: 127 (59 9%) n (%)
Non-ocular TEAEs, events M [1, 3]: 412
Ocular TEAE in study eye Conjunctival haemorrhage, events M [1, 3]: 16
Ocular TEAE in study eye Conjunctival haemorrhage, patients [1, 3]: 13 (6.1%) n (%)
Ocular TEAE in study eye Eye Pain, events M [1, 3]: 14
Ocular TEAE in study eye Eye Pain, patients [1, 3]: 12 (5.7%) n (%)
Ocular TEAE in study eye Vitreous floaters, events M [1, 3]: 20
Ocular TEAE in study eye Vitreous floaters, patients [1, 3]: 15 (7.1%) n (%)
Ocular TEAEs in study eye, Patients [1, 3]: 97 (45.8%) n (%) and 97 (45.8) n (%)
Ocular TEAEs in study eye, events M [1, 3]: 208
Serious ocular TEAE Endophthalmitis, events M [1, 3]: 3
Serious ocular TEAE Endophthalmitis, patients [1, 3]: 3 (1.4%) n (%)
Serious ocular TEAE Macular hole, patients [1, 3]: 0 n (%)
Serious ocular TEAE Optic ischemic neuropathy, patients [1, 3]: 0 n (%)
Serious ocular TEAE Papilledema, patients [1, 3]: 0 n (%)
Serious ocular TEAE Retinal detachment, events M [1, 3]: 1
Serious ocular TEAE Retinal detachment, patients [1, 3]: 1 (0.5%) n (%)
Serious ocular TEAEs in the study eye, events M [1, 3]: 4
Serious ocular TEAEs in the study eye, patients [1, 3]: 4 (1.9%) n (%)
Sum of investigator-determined eAMD and reading center cases not reported by investigators [1, 3]: (6.1%)
Sum of investigator-determined eAMD and reading center cases not reported by investigators ([1]; PEOM (every other month), 12 months, count): 13
All TEAEs, Total events, M [1, 4]: 965
All TEAEs, patients [1, 4]: 177 (83.5%) n (%)
Non-ocular TEAEs, M [1, 4]: 567
Non-ocular TEAEs, Patients [1, 4]: 158 (74.5%) n (%)
Ocular TEAEs in study eye, M [1, 4]: 270
Ocular TEAEs in study eye, Patients [1, 4]: 114 (53.8%) n (%)
Discontinued study prior to Month 12, reason Adverse Event [1, 5]: 5 (2.4%) n (%)
Discontinued study prior to Month 12, reason Death [1, 5]: 3 (1.4%) n (%)
Discontinued study prior to Month 18, reason Adverse event [1, 5]: 4 (1.9%) n (%)
Discontinued study prior to Month 18, reason Death [1, 5]: 7 (3.3%) n (%)
Patients with new onset fellow eye eAMD ([1]; PEOM (every other month), 173 patients without baseline fellow eye CNV): 5 (2.9%) n (%)
All TEAEs, Total events, M ([1]; PM (monthly), 12 months): 751
All TEAEs, patients ([1]; PM (monthly), 12 months): 170 (79.8%) n (%)
Cases of MNV (FA) detected by reading center but not reported by Investigator as AE ([1]; PM (monthly), 12 months): 2
Non-ocular TEAEs, Patients ([1]; PM (monthly), 12 months): 136 (63.8%) n (%)
Non-ocular TEAEs, events M ([1]; PM (monthly), 12 months): 390
Ocular TEAE in study eye Conjunctival haemorrhage, events M ([1]; PM (monthly), 12 months): 30
Ocular TEAE in study eye Conjunctival haemorrhage, patients ([1]; PM (monthly), 12 months): 18 (8.5%) n (%)
Ocular TEAE in study eye Eye Pain, events M ([1]; PM (monthly), 12 months): 17
Ocular TEAE in study eye Eye Pain, patients ([1]; PM (monthly), 12 months): 15 (7.0%) n (%)
Ocular TEAE in study eye Vitreous floaters, events M ([1]; PM (monthly), 12 months): 10
Ocular TEAE in study eye Vitreous floaters, patients ([1]; PM (monthly), 12 months): 9 (4.2%) n (%)
Ocular TEAEs in study eye, Patients ([1]; PM (monthly), 12 months): 108 (50.7%) n (%)
Ocular TEAEs in study eye, events M ([1]; PM (monthly), 12 months): 256
Serious ocular TEAE Dry AMD, patients ([1]; PM (monthly), 12 months): 0 n (%)
Serious ocular TEAE Endophthalmitis, events M ([1]; PM (monthly), 12 months): 3
Serious ocular TEAE Endophthalmitis, patients ([1]; PM (monthly), 12 months): 1 (0.5%) n (%)
Serious ocular TEAE Macular hole, patients ([1]; PM (monthly), 12 months): 0 n (%)
Serious ocular TEAE Optic ischemic neuropathy, events M ([1]; PM (monthly), 12 months): 3
Serious ocular TEAE Optic ischemic neuropathy, patients ([1]; PM (monthly), 12 months): 1 (0.5%) n (%)
Serious ocular TEAE Papilledema, events M ([1]; PM (monthly), 12 months): 3
Serious ocular TEAE Papilledema, patients ([1]; PM (monthly), 12 months): 1 (0.5%) n (%)
Serious ocular TEAE Retinal detachment, patients ([1]; PM (monthly), 12 months): 0 n (%)
Serious ocular TEAE Vitritis, patients ([1]; PM (monthly), 12 months): 0 n (%)
Serious ocular TEAEs in the study eye, events M ([1]; PM (monthly), 12 months): 3
Serious ocular TEAEs in the study eye, patients ([1]; PM (monthly), 12 months): 3 (1.4%) n (%)
Sum of investigator-determined eAMD and reading center cases not reported by investigators ([1]; PM (monthly), 12 months): (6.1%)
Sum of investigator-determined eAMD and reading center cases not reported by investigators ([1]; PM (monthly), 12 months, count): 13
All TEAEs, Total events, M ([1]; PM (monthly), 18 months): 1037
All TEAEs, patients ([1]; PM (monthly), 18 months): 185 (86.9%) n (%)
Non-ocular TEAEs, M ([1]; PM (monthly), 18 months): 573
Non-ocular TEAEs, Patients ([1]; PM (monthly), 18 months): 152 (71.4%) n (%)
Ocular TEAEs in study eye, M ([1]; PM (monthly), 18 months): 325
Ocular TEAEs in study eye, Patients ([1]; PM (monthly), 18 months): 126 (59.2%) n (%)
Discontinued study prior to Month 12, reason Adverse Event ([1]; PM (monthly), N=213): 3 (1.4%) n (%)
Discontinued study prior to Month 12, reason Death ([1]; PM (monthly), N=213): 7 (3.3%) n (%)
Discontinued study prior to Month 18, reason Adverse event ([1]; PM (monthly), N=213): 6 (2.8%) n (%)
Discontinued study prior to Month 18, reason Death ([1]; PM (monthly), N=213): 12 (5.6%) n (%)
Patients with new onset fellow eye eAMD ([1]; PM (monthly), 168 patients without baseline fellow eye CNV): 8 (4.8%) n (%)
patients with study eye investigator-determined new-onset exudative AMD ([1]; every other month, month 18, 15/212 patients): 7.1%
patients with study eye investigator-determined new-onset exudative AMD ([1]; monthly, month 18, 16/213 patients): 7.5%
reduction of GA lesion growth versus sham ([2]; EOM, months 18-24, p=0.0007): 25%
reduction in GA lesion growth from baseline compared to sham ([2]; EOM, p 0.0002 nominal): 18%
reduction in lesion growth in the study eye versus the untreated study eye, after adjusting for sham ([2]; every other month): 15%
reduction in lesion growth in the study eye versus the untreated study eye ([2]; every other month, p=0.1274): 7%
reduction in lesion growth in the study eye versus the untreated study eye, after adjusting for sham ([2]; monthly): 26%
reduction in lesion growth in the study eye versus the untreated study eye ([2]; monthly, p<0.0001): 19%
reduction in GA lesion growth versus sham ([2]; distance >250 microns, every other month, p=0.1203): 15%
reduction in GA lesion growth versus sham ([2]; distance ≤250 microns, monthly, p=0.0002): 22%
percentage reduction versus sham pooled ([2]; every other month, >50 microns, p=0.0430): 17%
percentage reduction versus sham pooled ([2]; every other month, >100 microns, p=0.0338): 18%
percentage reduction versus sham pooled ([2]; every other month, >150 microns, p=0.0575): 17%
percentage reduction versus sham pooled ([2]; every other month, >200 microns, p=0.1002): 15%
reduction in GA lesion growth vs pooled sham ([2]; every other month, month 12, p=0.0052): 16%
reduction in extrafoveal GA lesion growth vs pooled sham ([2]; every other month, month 18, p 0.0422): 17%
reduction in GA lesion growth, covariate-adjusted post-hoc analysis ([2]; every other month, month 18, p=0.0002): 18%
reduction in foveal GA lesion growth, covariate-adjusted ([2]; every other month, month 18, p=0.0008): 19%
reduction in GA lesion growth vs pooled sham ([2]; every other month, month 18, p=0.0018 nominal): 16%
reduction in foveal GA lesion growth vs pooled sham ([2]; every other month, month 18, p=0.0020): 19%
reduction in extrafoveal GA lesion growth, covariate-adjusted ([2]; every other month, month 18, p=0.0673): 15%
percentage reduction versus sham pooled ([2]; monthly, >100 microns, p<0.0001): 34%
percentage reduction versus sham pooled ([2]; monthly, >150 microns, p<0.0001): 34%
percentage reduction versus sham pooled ([2]; monthly, >200 microns, p<0.0001): 34%
percentage reduction versus sham pooled ([2]; monthly, distance to foveal center point >50 microns, p<0.0001): 33%
reduction in GA lesion growth vs pooled sham ([2]; monthly, month 12, p=0.0003): 22%
reduction in GA lesion growth, covariate-adjusted post-hoc analysis ([2]; monthly, month 18, p<0.0001): 26%
reduction in extrafoveal GA lesion growth vs pooled sham ([2]; monthly, month 18, p<0.0001): 33%
reduction in extrafoveal GA lesion growth, covariate-adjusted ([2]; monthly, month 18, p<0.0001): 33%
reduction in GA lesion growth vs pooled sham ([2]; monthly, month 18, p<0.0001 nominal): 22%
reduction in foveal GA lesion growth, covariate-adjusted ([2]; monthly, month 18, p=0.0044): 19%
reduction in foveal GA lesion growth vs pooled sham ([2]; monthly, month 18, p=0.0105): 18%
reduction of GA lesion growth versus sham ([2]; monthly, months 18-24, p=0.0080): 24%
reduction in GA lesion growth from baseline compared to sham ([2]; monthly, p<0.0001 nominal): 22%
decrease of patients in Q4 (fast progressors), relative to sham [2, 6]: 43%
increase of patients in Q1 (slow progressors), relative to sham [2, 6]: 83%

From US20250000936A1, “TREATMENT OF GEOGRAPHIC ATROPHY” (Apellis Pharmaceuticals, Inc., priority 2021, published 2025)
